The values below come from the RNAGym collection of RNA variant scans (doi:10.1073/pnas.2313332121).

This sample holds only a part of the variants without activity.

Sequences and labels used below:
B1: TPR 5TU (parent)
chain: GGAUCUUCUCGAUCUAACAAAAAAGACAAAUCUGCCACAAAGCUUGAGAGCAUCUUCGGAUGCAGAGGCGGCAGCCUUCGGUGGCGCGAUAGCGCCAACGUUCUCAACUAUGACACGCAAAACGCGUGCUCCGUUGAAUGGAGUUUAUCAUG

The series covers variants of B1. Briefly: polymerase ribozyme fitness, log enrichment relative to wild type (log ratio); higher = more active; in vitro selection for triplet polymerase activity. In a few lines: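 Mutant libraries of each subunit of a heterodimeric triplet polymerase ribozyme were built by PCR and transcribed. Each library went through one round of in vitro selection in triplicate: annealing with biotinylated primer, partner subunit and triplets, frozen incubation at −7 °C, gel excision of extended constructs, streptavidin-bead capture and RT-PCR. Input and output libraries were Illumina-sequenced; only genotypes with ≥10 input reads and ≥1 read per output were kept. Fitness is log2(genotype enrichment/wild-type enrichment), using inverse-variance-weighted replicate averages.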
For U13G U61A A89U C96U, the “polymerase ribozyme fitness (log ratio)” value was -3.58.
Then A19U A37C U135G, with -3.82.
Then A30C C95U, with -4.11; and C18G U31C G59C G81A C116G A138G, with -4.15; and G84A C118A U146C, with -1.34.
As for U15G A17G C38A G62C G81A C85G, the figure is no more than -4.2; as for G86A A122G, -1.11.
For A21C A40U C93A, the “polymerase ribozyme fitness (log ratio)” value is -1.84.
Then A12C G71U C93U A97G C103U C131G G141C, with no more than -4.2.
As for G67U G74C C103U A121U A137C U144G, the figure is no more than -4.2.
Then G46A G50A C57U A60G G68A G83A G94U G141C, with no more than -4.2; and U15A A20G U44A A121C G136U, with no more than -4.2.
As to C87U C125A C131U, the “polymerase ribozyme fitness (log ratio)” value worked out at 0.186.
As for U82G A98G G117A A122U, the figure is 0.376.
As for A22G C36U C87U, the figure is -3.06; as for U4G A23U U44G C51U C76G C96U U148C, no more than -4.2.
As to C8U A52C G68C, the “polymerase ribozyme fitness (log ratio)” value is no more than -4.2.
Then A24G G62U G94A C116G A120U U127A U135C, with no more than -4.2.
Regarding C93U A110G, the “polymerase ribozyme fitness (log ratio)” value was -3.25.
As for A37G A47U G81C C95G U102G A120U U134C U135G A137C, the figure is no more than -4.2; as for U55G G143C, -2.79; as for A106G U134A, -1.28.
Then A73G C95U A122U C125U U127G A138G, with no more than -4.2; and C14G C85A C95G C103U U146A, with no more than -4.2.
As for C87U U90C C99G, the figure is -3.53; as for G83A A119C, -2.44; as for C76A A98U, -0.0442.
For G80U G81C G84U A89U A97U G100A G126U, the “polymerase ribozyme fitness (log ratio)” value was no more than -4.2.
As for A21G G58C, the figure is 0.298; as for C54G A97U A106C, -2.99; as for A28C C43U U56A A107C, no more than -4.2.
For the variant U55A G62A C87U C103U, the “polymerase ribozyme fitness (log ratio)” value was -1.44.
As for C38U C85U C105U C123G, the figure is 0.319; as for A12U C35G A60C U61A C76A G124U, no more than -4.2; as for G50A G86A C132U G143C C149G, no more than -4.2.
Then A30U G62U U90G C95A A107C C118A A142G, with no more than -4.2; and A40U C87U G88U, with no more than -4.2.
With A49G A122U G124U, the “polymerase ribozyme fitness (log ratio)” value is -0.811.
As for A17G C85A C129A, the figure is -2.88; as for U6G C10U A12U U33G A37U C95A U135A G141U U144C, no more than -4.2.
As for G50A G86A C131U, the figure is -1.93.
As for C85A A106G, the figure is -2.01.
Take U44C G83C U148A: the “polymerase ribozyme fitness (log ratio)” value was no more than -4.2.
As for C36U G58U G94A C105U C125U U135C, the figure is -3.89; as for C69U G71U C87U A89C, -3.31.
As for U6G A22C C35A G58C G74U C76U U78C G133U U151C, the figure is no more than -4.2; as for U33C G42A G81A A89G A119C C132U, no more than -4.2; as for G81A C87U G100U A115U C116U, -4.04.
As to G59U C96U, the “polymerase ribozyme fitness (log ratio)” value is -0.292.
As for G46A G81A G136A U146A, the figure is 0.373.
As for A64C G65A A107G G112U G124A G141U U148G, the figure is no more than -4.2.
Then A24C C27G U33G C38U A47U U82A G128U, with no more than -4.2; and A3U U15G C51A G84U U151G, with no more than -4.2.
On to U9C G71A C95U U151C, for which the “polymerase ribozyme fitness (log ratio)” value is no more than -4.2.
Then A73G G84U, with -1.29.
Then A12U C87U A119U, with -1.23.
Then A20U G50A U55G C85U A91U A137G, with no more than -4.2.
Consider U6G A47C C87A, for which the “polymerase ribozyme fitness (log ratio)” value is no more than -4.2.
Then C38U G140U, with -2.77; and U7C G48C C85U, with -3.27.
Then U9C C14U C76A C87G, with no more than -4.2; and G83U C132U, with -1.33; and G59C G83A, with -0.754.
Consider U9C A22G A23C G25C G83C, for which the “polymerase ribozyme fitness (log ratio)” value was no more than -4.2.
Then U4A G48C C75A C99A U135C A150C, with no more than -4.2; and C54A U55G G58U G81C C85A, with -2.41; and U56A C93U G141A, with -3.72.
On to U33G G80C G92A C131A U151A, for which the “polymerase ribozyme fitness (log ratio)” value is -4.15.
Consider A12G U55G, for which the “polymerase ribozyme fitness (log ratio)” value was -2.
Then A12U C96U U144G, with 0.0703.
As for G83A G126C, the figure is 0.173.
For A16U A29U U77G C85G C116U C125A U134C, the “polymerase ribozyme fitness (log ratio)” value is no more than -4.2.
Then A3U A19U C57U G62U C69U C85U C99G U130C G136U U146G, with no more than -4.2; and C27U A39C G83A, with no more than -4.2; and A52G U104G, with -1.26.
Then A17U C87U C96U U104C A107U G141U, with no more than -4.2; and U15G A16U A41C A52C G81C G83U A106U U127A, with no more than -4.2; and A39U C118U, with -2.03.
Turning to G46U A120U, the “polymerase ribozyme fitness (log ratio)” value is -0.29.
As for U77G A89U C95A C114U C125G, the figure is no more than -4.2.
Then A91G G100U A113U A120G C125A U139G, with no more than -4.2; and A21U U44A C51U C57U G65A, with no more than -4.2.
As for A26U C103A C114U, the figure is no more than -4.2.
